According to article PMC13186710:

Key:
[1] = target: Nonphosphorylated, SAG21k-bound FLAG-tagged mouse Smoothened (residues 64-674) S570C (mouse) (UniProt P56726); assay: cross-linking; disulfide trapping with 5 mM diamide, 1 h, room temperature; FLAG-SMO (4 ul of 12.5 uM) and PKA-C (4 ul of 6.25 uM) in 10 ul, 20 mM HEPES, 150 mM NaCl, 0.025% GDN, SAG21k, 1 mM ATP, 10 mM MgCl2, pH 8.0; non-reducing SDS-PAGE
[2] = target: GRK2-phosphorylated FLAG-tagged mouse Smoothened (residues 64-674) I573A F577A R580A (mouse) (UniProt P56726); assay: SPR; biotinylated SMO nanodiscs captured (Biotin CAPture kit, 250-350 RU); myr-PKA-Cα-K7C 16 nM-1 uM injected; 20 mM MOPS pH 7.0, 150 mM NaCl, 100 uM EDTA, 1 mM ATP, 10 mM MgCl2, 0.001% P20, 25 °C; Biacore 3000; steady-state analysis
[3] = target: GRK2-phosphorylated FLAG-tagged mouse Smoothened (residues 64-674), wild type (mouse) (UniProt P56726); assay: as above

Row | Substance | percent of the disulfide trapping that depends on SMO phosphorylation (against pSMO S570C) [1] | Kd [2] | Kd [3]
1 | Mouse PKA-C G136C in the minimal-cysteine ((−)Cys, C199A) background (enzyme) | 54% | – | –
2 | Myristoylated PKA-Cα K7C (enzyme) | – | 222 nM | 82 nM
